Source: paper PMC4656143

Biological target: opto-DN-CREB
Assay: thermal relaxation kinetics

stoichiometry N: 1
B1: CREB-bZIP (domain or fragment)
chain: ARKREVRLMKNREAARECRRKKKEYVKCLENRVAVLENQNKTLIEELKALKDLYCHKSD
